# US7057015B1, “Hormone receptor functional dimers and methods of their use” (The Salk Institute for Biological Studies, priority 1999, dated 2006)
# T1: Drosophila melanogaster ecdysone receptor (monomeric) (Drosophila melanogaster, UniProt P34021 1-878)
# T1 sequence (looked up): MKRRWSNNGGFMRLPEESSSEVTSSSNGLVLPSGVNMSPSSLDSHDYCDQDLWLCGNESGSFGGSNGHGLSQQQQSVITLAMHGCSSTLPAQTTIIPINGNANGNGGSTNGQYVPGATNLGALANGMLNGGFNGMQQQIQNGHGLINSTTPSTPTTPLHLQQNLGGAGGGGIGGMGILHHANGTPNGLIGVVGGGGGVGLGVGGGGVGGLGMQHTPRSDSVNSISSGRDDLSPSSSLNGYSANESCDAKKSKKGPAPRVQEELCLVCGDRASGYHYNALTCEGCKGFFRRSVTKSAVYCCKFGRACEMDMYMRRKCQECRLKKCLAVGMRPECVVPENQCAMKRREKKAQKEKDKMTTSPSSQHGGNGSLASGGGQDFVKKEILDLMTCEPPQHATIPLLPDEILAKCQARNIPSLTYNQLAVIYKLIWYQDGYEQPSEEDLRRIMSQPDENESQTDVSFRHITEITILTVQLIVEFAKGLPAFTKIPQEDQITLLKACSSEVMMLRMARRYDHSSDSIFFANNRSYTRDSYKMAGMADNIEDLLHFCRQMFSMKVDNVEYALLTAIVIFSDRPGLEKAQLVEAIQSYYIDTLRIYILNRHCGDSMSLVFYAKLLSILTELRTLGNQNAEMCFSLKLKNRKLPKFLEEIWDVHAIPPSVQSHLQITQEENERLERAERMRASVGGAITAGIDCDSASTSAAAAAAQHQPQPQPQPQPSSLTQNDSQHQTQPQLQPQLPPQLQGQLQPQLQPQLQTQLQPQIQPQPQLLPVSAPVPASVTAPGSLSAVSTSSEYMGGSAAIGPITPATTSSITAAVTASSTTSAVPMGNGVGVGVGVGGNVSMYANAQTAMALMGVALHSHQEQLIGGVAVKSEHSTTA
# Experiments:
# [1] = tested on: R5E (RXR-EcR fusion, 5 linker segments) (Homo sapiens / Drosophila melanogaster); assay: EMSA; conditions: 1 uM muristerone A, 23 C
# [2] = tested on: U0E (Usp-EcR fusion, 0 linker segments) (Drosophila melanogaster); assay: EMSA; conditions: barely detectable endodimer band; 1 uM muristerone A, 23 C
# [3] = tested on: E5R (EcR-RXR fusion, 5 linker segments) (Drosophila melanogaster / Homo sapiens); assay: EMSA; conditions: 1 uM muristerone A, 23 C
# [4] = tested on: R0E (RXR-EcR fusion, 0 linker segments) (Homo sapiens / Drosophila melanogaster); assay: EMSA; conditions: 1 uM muristerone A, 23 C
# [5] = tested on: E5U (EcR-Usp fusion, 5 linker segments) (Drosophila melanogaster); assay: EMSA; conditions: nearly ligand-insensitive; not significantly above E0U
# [6] = tested on: E0U (EcR-Usp fusion, 0 linker segments) (Drosophila melanogaster); assay: EMSA; conditions: nearly ligand-insensitive
# [7] = tested on: E0R (EcR-RXR fusion, 0 linker segments) (Drosophila melanogaster / Homo sapiens); assay: EMSA; conditions: 1 uM muristerone A, 23 C
# [8] = tested on: mammals and other non-insect species; conditions: in vivo; cited from earlier work
# [9] = target: T1, Drosophila melanogaster ecdysone …; assay: cell-based or functional assay
# [10] = tested on: EcRE probe; assay: Gel mobility shift analysis of EcRE probe binding by FDs; conditions: 1 μM murA vs vehicle, extracts of transfected 293 cells
# Method: Preparation of the invention fusion protein FDs for gel shift analysis by transient transfection into 293 cells was as follows: 300 ng of individual receptor plasmids and 100 ng pCH110 internal control plasmid were cotransfected into 293 cells at 60% density in Costar 6-well plates. One well of each group was treated with 1 μM murA as ligand at the time of transfection. 40 hours later, extracts of transfected 293 cells were made by scraping the cells from a well into a low volume of phosphate buffered saline, pelleting the cells, resuspending them in 200 μl 5×gel shift buffer (Yao et al., supra 1992), and sonicating with a Kontes cell disrupter for three 10-sec. bursts at output level 30. The extracts were then centrifuged to clear the lysate and the protein was quantified. […]
# Comparative gel mobility shift analyses of FDs with control in vitro translated receptor complexes were performed using double stranded EcRE probes and labeled by Klenow fill using ^32P-dCTP and cold dGAT by standard methods. […] Band volumes were quantified using laser scanning densitometry.
# An autoradiogram of FDs and controls treated either with control vehicle or with 1 μM of murA as ligand was made with markers indicating endodimer FD or wild type receptor-binding complex band shifts. […] FIG. 2A is a graph that quantifies endodimer-sized band volumes obtained from the autoradiogram.
# [11] = tested on: E4-luc reporter plasmid in 293 cells; assay: Transient transfection luciferase transactivation assay with E4-luc reporter; assay type: cell-based, human
# Method: For quantitative transactivation analysis, transfections were performed in triplicate in 24-well plates by calcium-phosphate co-precipitation with 100 ng of an individual receptor, the reporter plasmid E4-luc, and pCH110 (SV40-β-galactosidase) as an internal control. Briefly, the reporter plasmid, E4-luc, was constructed of 4-tandem EcREs inserted upstream of a thymidine kinase gene minimal promoter directing luciferase expression. […] 1 μM ligand was added at the time of transfection, and the cells were harvested for luciferase assay 40 hours later. Harvested cell extracts were split, and one part was analyzed in a luminometer for luciferase activity and the other part was analyzed for β-galactosidase activity using an orthonitrophenyl galactoside assay by standard methods. Luciferase levels were normalized to β-galactosidase values to correct for slight differences in transfection efficiency.
molecule,measurement,setting,value
EcRE probe,binding signal (fold increase with ligand),[1],5
same,binding signal (fold increase with ligand),[2],2
same,binding signal (fold increase with ligand),[3],11
same,binding signal (fold increase with ligand),[4],4
same,binding signal (fold vs UNE constructs (average of ENU)),[5],10
same,binding signal (fold vs UNE constructs (average of ENU)),[6],10
same,binding signal (fold increase with ligand),[7],7
"CCc1ccc(C(=O)NN(C(=O)c2cc(C)cc(C)c2)C(C)(C)C)cc1 [Tebufenozide, tebufenozide]",toxicity to mammals and other non-insect species,[8],very low toxicity
VP16-fused monomeric RXR (other) MDTKHFLPLDFSTQVNSSLTSPTGRGSMAAPSLHPSLGPGIGSPGQLHSPISTLSSPINGMGPPFSVISSPMGPHSMSVPTTPTLGFSTGSPQLSSPMNPVSSSEDIKPPLGLNGVLKVPAHPSGNMASFTKHICAICGDRSSGKHYGVYSCEGCKGFFKRTVRKDLTYTCRDNKDCLIDKRQRNRCQYCRYQKCLAMGMKREAVQEERQRGKDRNENEVESTSSANEDMPVERILEAELAVEPKTETYVEANMGLNPSSPNDPVTNICQAADKQLFTLVEWAKRIPHFSELPLDDQVILLRAGWNELLIASFSHRSIAVKDGILLATGLHVHRNSAHSAGVGAIFDRVLTELVSKMRDMQMDKTELGCLRAIVLFNPDSKGLSNPAEVEALREKVYASLEAYCKHKYPEQPGRFAKLLLRLPALRSIGLKCLEHLFFFKLIGDTPIDTFLMEMLEAPHQMT,E-mediated transactivation of the E4-luc luciferase reporter in 293 cells,[9],> 5 fold
"E5R: fusion protein: Drosophila EcR at amino terminus, 5 linker segments, RXR (protein) MKRRWSNNGGFMRLPEESSSEVTSSSNGLVLPSGVNMSPSSLDSHDYCDQDLWLCGNESGSFGGSNGHGLSQQQQSVITLAMHGCSSTLPAQTTIIPINGNANGNGGSTNGQYVPGATNLGALANGMLNGGFNGMQQQIQNGHGLINSTTPSTPTTPLHLQQNLGGAGGGGIGGMGILHHANGTPNGLIGVVGGGGGVGLGVGGGGVGGLGMQHTPRSDSVNSISSGRDDLSPSSSLNGYSANESCDAKKSKKGPAPRVQEELCLVCGDRASGYHYNALTCEGCKGFFRRSVTKSAVYCCKFGRACEMDMYMRRKCQECRLKKCLAVGMRPECVVPENQCAMKRREKKAQKEKDKMTTSPSSQHGGNGSLASGGGQDFVKKEILDLMTCEPPQHATIPLLPDEILAKCQARNIPSLTYNQLAVIYKLIWYQDGYEQPSEEDLRRIMSQPDENESQTDVSFRHITEITILTVQLIVEFAKGLPAFTKIPQEDQITLLKACSSEVMMLRMARRYDHSSDSIFFANNRSYTRDSYKMAGMADNIEDLLHFCRQMFSMKVDNVEYALLTAIVIFSDRPGLEKAQLVEAIQSYYIDTLRIYILNRHCGDSMSLVFYAKLLSILTELRTLGNQNAEMCFSLKLKNRKLPKFLEEIWDVHAIPPSVQSHLQITQEENERLERAERMRASVGGAITAGIDCDSASTSAAAAAAQHQPQPQPQPQPSSLTQNDSQHQTQPQLQPQLPPQLQGQLQPQLQPQLQTQLQPQIQPQPQLLPVSAPVPASVTAPGSLSAVSTSSEYMGGSAAIGPITPATTSSITAAVTASSTTSAVPMGNGVGVGVGVGGNVSMYANAQTAMALMGVALHSHQEQLIGGVAVKSEHSTTAGPTGPGPGGGSGGGSGTGPGGGSGGGSGTGPGGGSGGGSGTGPGGGSGGGSGTGPGGGSGGGSGTMDTKHFLPLDFSTQVNSSLTSPTGRGSMAAPSLHPSLGPGIGSPGQLHSPISTLSSPINGMGPPFSVISSPMGPHSMSVPTTPTLGFSTGSPQLSSPMNPVSSSEDIKPPLGLNGVLKVPAHPSGNMASFTKHICAICGDRSSGKHYGVYSCEGCKGFFKRTVRKDLTYTCRDNKDCLIDKRQRNRCQYCRYQKCLAMGMKREAVQEERQRGKDRNENEVESTSSANEDMPVERILEAELAVEPKTETYVEANMGLNPSSPNDPVTNICQAADKQLFTLVEWAKRIPHFSELPLDDQVILLRAGWNELLIASFSHRSIAVKDGILLATGLHVHRNSAHSAGVGAIFDRVLTELVSKMRDMQMDKTELGCLRAIVLFNPDSKGLSNPAEVEALREKVYASLEAYCKHKYPEQPGRFAKLLLRLPALRSIGLKCLEHLFFFKLIGDTPIDTFLMEMLEAPHQMT",relative-fold increase in response element binding (endodimer band) resulting from ligand treatment,[10],11 fold
same,Rel. Ind. = relative induction of individual receptor groups,[11]; +ligand (1 μM murA) versus −ligand,8.4 fold
same,+Lig/E4 = luciferase activity vs. reporter only with ligand,"[11]; transiently co-transfected 293 cells, 1 μM murA, relative to E4-luc reporter only",3.89
same,−Lig/E4 = luciferase activity vs. reporter only without ligand,"[11]; transiently co-transfected 293 cells, without ligand, relative to E4-luc reporter only",0.46
